Key:
[1] = target: type 2β regulatory subunit of PKA (RIIβ), full length (rat, UniProt P12369 1-416); assay: fluorescence polarisation
[2] = target: type 2α regulatory subunit of PKA (RIIα), full length (rat, UniProt P12368 1-401); assay: fluorescence polarisation
Chain of type 2α regulatory subunit of PKA (RIIα), full length (P12368 whole entry): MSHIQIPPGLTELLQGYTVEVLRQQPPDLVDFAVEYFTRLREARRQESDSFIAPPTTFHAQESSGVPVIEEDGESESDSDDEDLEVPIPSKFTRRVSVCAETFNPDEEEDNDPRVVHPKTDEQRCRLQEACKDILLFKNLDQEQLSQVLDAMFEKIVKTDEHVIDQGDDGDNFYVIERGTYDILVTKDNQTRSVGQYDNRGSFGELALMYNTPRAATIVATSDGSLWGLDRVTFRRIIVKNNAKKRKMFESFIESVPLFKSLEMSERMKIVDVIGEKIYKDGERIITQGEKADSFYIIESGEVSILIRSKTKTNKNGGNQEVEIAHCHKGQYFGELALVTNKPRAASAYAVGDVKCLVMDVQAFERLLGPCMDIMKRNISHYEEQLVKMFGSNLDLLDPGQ

Chain of type 2β regulatory subunit of PKA (RIIβ), full length (P12369 whole entry): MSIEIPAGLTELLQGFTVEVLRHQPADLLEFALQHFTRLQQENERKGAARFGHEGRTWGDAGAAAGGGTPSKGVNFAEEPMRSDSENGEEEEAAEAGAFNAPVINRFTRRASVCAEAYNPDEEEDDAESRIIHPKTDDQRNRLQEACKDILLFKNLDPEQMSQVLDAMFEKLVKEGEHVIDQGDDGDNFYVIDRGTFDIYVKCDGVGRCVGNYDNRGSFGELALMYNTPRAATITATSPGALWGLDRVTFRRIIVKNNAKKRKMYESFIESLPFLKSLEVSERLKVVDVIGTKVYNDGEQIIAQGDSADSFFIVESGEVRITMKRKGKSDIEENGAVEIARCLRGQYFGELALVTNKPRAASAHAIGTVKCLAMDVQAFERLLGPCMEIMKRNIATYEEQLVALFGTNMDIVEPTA

Kd [1]: 2160 nM
Kd [2]: 990 nM
B1: S100A1 (natural protein)
chain: GSELETAMETLINVFHAHSGKEGDKYKLSKKELKELLQTELSGFLDAQKDVDAVDKVMKELDENGDGEVDFQEYVVLVAALTVACNNFFWENS
